Results taken from publication PMC9736779.

Molecular target: nucleolin (NCL) (Homo sapiens) (UniProt P19338)
Assay: SPR
Conditions: SPR (Biacore X-100, CM5): 10 mM HEPES, 70 mM KCl, pH 7.4, 25 C, analyte 5-500 uM, two-state reaction fit

Chain of nucleolin (NCL) (Homo sapiens) (P19338 whole entry): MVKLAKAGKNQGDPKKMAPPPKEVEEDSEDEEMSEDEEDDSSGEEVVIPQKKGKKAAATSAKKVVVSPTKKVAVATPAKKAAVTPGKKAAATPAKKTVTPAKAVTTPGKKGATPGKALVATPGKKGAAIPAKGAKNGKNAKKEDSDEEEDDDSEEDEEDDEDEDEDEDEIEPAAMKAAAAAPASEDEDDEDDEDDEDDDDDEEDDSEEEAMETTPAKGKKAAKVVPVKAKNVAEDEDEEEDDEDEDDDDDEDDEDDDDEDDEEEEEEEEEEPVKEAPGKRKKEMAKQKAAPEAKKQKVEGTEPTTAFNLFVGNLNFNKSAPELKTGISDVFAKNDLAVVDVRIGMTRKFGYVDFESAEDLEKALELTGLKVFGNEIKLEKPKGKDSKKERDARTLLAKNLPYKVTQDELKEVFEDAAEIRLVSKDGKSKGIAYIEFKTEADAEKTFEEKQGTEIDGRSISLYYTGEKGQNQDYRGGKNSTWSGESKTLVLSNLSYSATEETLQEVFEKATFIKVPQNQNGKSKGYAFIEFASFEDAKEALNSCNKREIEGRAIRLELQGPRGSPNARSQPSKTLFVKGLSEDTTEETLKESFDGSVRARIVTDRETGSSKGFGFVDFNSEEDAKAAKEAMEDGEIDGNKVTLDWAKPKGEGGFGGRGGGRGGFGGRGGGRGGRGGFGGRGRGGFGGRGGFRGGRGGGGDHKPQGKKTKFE

GGGGNNGGGGTGTGGGGTTGGGG [TBAG41S] showed a Kd (N at 5,6 = abasic site mimic (dSpacer, 1',2'-dideoxyribose)) of 41.5 µM.

For GGGGTTGGGGNNNGGGGTTGGGG [TBAG4GS], the Kd (N at 11-13 = abasic site mimic (dSpacer, 1',2'-dideoxyribose)) was 32.2 µM.
